Assay results: US20120115870A1, “CONTROL OF INTRAOCULAR PRESSURE USING ALK5 MODULATION AGENTS” (ALCON RESEARCH, LTD., priority 2005, published 2012)

Legend:
[1] = tested on: TGF-β2-treated perfused human anterior segment model; assay: Perfusate fibronectin in TGF-β2-treated perfused human anterior segment model (FIG. 2); settings: human anterior segments treated with TGF-β2 and compound vs TGF-β2 only
Description: Human ocular perfusion organ culture was performed as described in available literature. [Tschumper et al., Curr Eye Res., 1990; Vol. 9:363-369; Clark et al., Invest Ophthalmol Vis Sci., 1995; Vol. 36:478-489; Pang et al., J Glaucoma, 2000; Vol. 9:468-479; Pang et al., Invest Ophthalmol Vis Sci., 2003; Vol. 44:3502-3510]. Briefly, anterior segments were dissected and mounted into custom Plexiglas culture chambers, then perfused with serum-free Dulbecco's modified Eagle's medium. IOP was monitored every 5 seconds and averaged each hour. Perfused tissue was allowed to equilibrate at 37° C. and 5% CO2 until a stable baseline IOP was achieved, typically 2-4 days; tissues with unstable IOP were discarded. Stable tissues were then further perfused with media containing the test compound(s) as indicated and changes in IOP were recorded. Eluate samples were collected daily for ELISA analysis of fibronectin and PAI-1 content. Tissues were fixed and evaluated for viability/morphology by light and electron microscopy at termination of each study. Data from unacceptable tissues were excluded from results. Criteria for “unacceptable” tissues included findings such as excess debris in the TM region, denudation of TM beams, loss of TM and/or Schlemm's canal cells, and breaks or collapse of Schlemm's canal. […]

[2] = tested on: GTM-3 transformed human TM cells; assay: TGF-β2-mediated fibronectin and PAI-1 in human TM cell culture supernatants, ELISA (FIG. 3); type: cell-based; settings: human TM cell cultures, 24 h
Description: (§1) Generation and characterization of the GTM-3 transformed cell line has been previously described (Pang et al., Curr Eye Res., 1994; Vol. 13:51-63). Briefly, maintenance growth medium consisted of Dulbecco's modified Eagle's medium with Glutamax I (Gibco/BRL, Grand Island, N.Y.) supplemented with 10% fetal bovine serum (Hyclone, Logan, Utah) and 50 μg/mL gentamicin (Gibco/BRL). For assay, cultures were trypsinized and seeded into 24-well plates (Corning Costar, Acton, Mass.) and allowed to grow until monolayers reached approximately 90% confluence. Culture medium was then replaced with 0.25 mL serum- and antibiotic-free medium containing the appropriate test compound(s). Cells were incubated 24 h, at 5% CO2 and 37° C. Aliquots of culture supernatants were then assayed for fibronectin and/or PAI-1 content by ELISA.

[3] = tested on: GTM-3 transformed human TM cells; assay: Pro-collagen type I C-peptide (PIP) in human TM cell cultures, ELISA (FIG. 4); type: cell-based; settings: 24 h
Description: For this experiment, cultured transformed GTM-3 cells (Pang et al., Curr Eye Res., 1994; Vol. 13:51-63) were grown in a growth medium consisting of Dulbecco's modified Eagle's medium with Glutamax I (Gibco/Invitrogen, Grand Island, N.Y.) supplemented with 10% fetal bovine serum (Hyclone, Logan, Utah) and 50 μg/mL gentamicin (Gibco/Invitrogen). For assay, cultures were enzymatically-dissociated (TrypLE Express; Gibco/Invitrogen) then seeded into 24-well plates (Corning Costar, Acton, Mass.) and allowed to grow until monolayers reached approximately 90-95% confluence. Culture medium was then replaced with 0.25 mL serum- and antibiotic-free medium containing the appropriate test compound(s). Cells were incubated 24 h, at 5% CO2 and 37° C. Aliquots of culture supernatants were then assayed using an ELISA kit for procollagen Type I C-peptide (TaKaRa Bio, Shiga, Japan).
Collagens are synthesized as pro-collagens, most of which contain additional peptide sequences called “propeptides”. Propeptides are located at both the N- and C-terminal ends of the molecules. These propeptides serve to facilitate formation of the mature collagen's triple helical structure from pro-collagens within the endoplasmic reticulum. […]

ALK5 = target: T1, ALK5 (Homo sapiens, UniProt P36897); settings: Brit J Pharmacol. 2005; 145:166-177; read-out: IC50, inhibition of phosphorylation of ALK5; cited from earlier work
T1 sequence (P36897 34-503): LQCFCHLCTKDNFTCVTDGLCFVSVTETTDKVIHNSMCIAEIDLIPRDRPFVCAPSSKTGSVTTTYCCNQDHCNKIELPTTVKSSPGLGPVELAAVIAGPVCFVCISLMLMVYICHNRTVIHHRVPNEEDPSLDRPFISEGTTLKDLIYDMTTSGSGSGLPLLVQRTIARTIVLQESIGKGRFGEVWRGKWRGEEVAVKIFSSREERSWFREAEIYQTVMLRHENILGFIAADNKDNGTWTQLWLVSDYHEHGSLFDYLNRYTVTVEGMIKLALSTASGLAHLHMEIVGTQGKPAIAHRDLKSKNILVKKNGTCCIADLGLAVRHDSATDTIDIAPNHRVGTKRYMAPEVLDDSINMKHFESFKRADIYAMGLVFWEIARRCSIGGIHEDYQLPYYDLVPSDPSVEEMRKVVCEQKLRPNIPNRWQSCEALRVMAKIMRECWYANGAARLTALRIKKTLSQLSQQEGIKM

TGF-β Type II receptors = TGF-β Type II receptors (Homo sapiens, UniProt P37173); settings: Brit J Pharmacol. 2005; 145:166-177; read-out: IC50, phosphorylation of TGF-β Type II receptors; cited from earlier work
p38 MAPK = p38 MAPK (Homo sapiens, UniProt Q16539); settings: Brit J Pharmacol. 2005; 145:166-177; read-out: IC50, phosphorylation of p38 MAPK; cited from earlier work
[4] = tested on: perfused human anterior segment model; assay: Perfused human anterior segment model, IOP (FIG. 1); settings: TGF-β2 infused at 5 ng/mL
Description: FIG. 1 is a graph showing the effect of infused TGF-β2 on a perfused human anterior segment model. All donor eyes used in this model were used according to the provisions of the Declaration of Helsinki for research involving human tissue, and were used within 24 hours post-mortem. No donors were known to have a history of glaucoma or other ocular disorder.
Human ocular perfusion organ culture was performed as described in available literature. [Tschumper et al., Curr Eye Res., 1990; Vol. 9:363-369; Clark et al., Invest Ophthalmol Vis Sci., 1995; Vol. 36:478-489; Pang et al., J Glaucoma, 2000; Vol. 9:468-479; Pang et al., Invest Ophthalmol Vis Sci., 2003; Vol. 44:3502-3510]. Briefly, anterior segments were dissected and mounted into custom Plexiglas culture chambers, then perfused with serum-free Dulbecco's modified Eagle's medium. IOP was monitored every 5 seconds and averaged each hour. Perfused tissue was allowed to equilibrate at 37° C. and 5% CO2 until a stable baseline IOP was achieved, typically 2-4 days; tissues with unstable IOP were discarded. Stable tissues were then further perfused with media containing the test compound(s) as indicated and changes in IOP were recorded. Eluate samples were collected daily for ELISA analysis of fibronectin and PAI-1 content. Tissues were fixed and evaluated for viability/morphology by light and electron microscopy at termination of each study. […]

GTM-3 = assay: Effect of TGF-β2 on HTM cell secretion of fibronectin and PAI-1; type: cell-based, human; settings: 24 hours
Description: as §1
(§2) TABLE 1, shown below, summarizes the results of a study measuring the effect of TGF-β2 on ECM-related protein levels (fibronectin, PAI-1) in cultured TM cells of various strains. TGF-β2 was present in the cultures at a concentration of 5 ng/mL, and protein levels (mean±s.e.m.) were measured after 24 hours.

GTM29-01 = assay: as above; type: cell-based, human; settings: 24 hours
Description: as §1, §2

GTM686-03 = assay: as above; type: cell-based, human; settings: 24 hours
Description: as §1, §2

GTM730-03 = assay: as above; type: cell-based, human; settings: 24 hours
Description: as §1, §2

NTM25-91 = assay: as above; type: cell-based, human; settings: 24 hours
Description: as §1, §2

NTM35 = assay: as above; type: cell-based, human; settings: 24 hours
Description: as §1, §2

NTM553-02 = assay: as above; type: cell-based, human; settings: 24 hours
Description: as §1, §2

NTM875-03 = assay: as above; type: cell-based, human; settings: 24 hours
Description: as §1, §2

NTM974-03 = assay: as above; type: cell-based, human; settings: 24 hours
Description: as §1, §2

SGTM1233-99 = assay: as above; type: cell-based, human; settings: 24 hours
Description: as §1, §2

SGTM2697 = assay: as above; type: cell-based, human; settings: 24 hours
Description: as §1, §2

Sequence of p38 MAPK (Q16539 whole entry, the tested form may be a part): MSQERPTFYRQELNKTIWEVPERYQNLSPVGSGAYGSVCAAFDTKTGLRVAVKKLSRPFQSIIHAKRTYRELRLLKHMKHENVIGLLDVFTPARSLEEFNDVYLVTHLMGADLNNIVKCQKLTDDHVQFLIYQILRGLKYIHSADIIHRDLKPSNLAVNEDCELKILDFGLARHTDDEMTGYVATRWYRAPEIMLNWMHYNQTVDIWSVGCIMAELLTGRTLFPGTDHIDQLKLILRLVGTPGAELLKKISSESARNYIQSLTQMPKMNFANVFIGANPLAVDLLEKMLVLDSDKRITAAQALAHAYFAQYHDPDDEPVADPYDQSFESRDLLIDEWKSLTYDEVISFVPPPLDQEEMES
Sequence of TGF-β Type II receptors (P37173 23-567): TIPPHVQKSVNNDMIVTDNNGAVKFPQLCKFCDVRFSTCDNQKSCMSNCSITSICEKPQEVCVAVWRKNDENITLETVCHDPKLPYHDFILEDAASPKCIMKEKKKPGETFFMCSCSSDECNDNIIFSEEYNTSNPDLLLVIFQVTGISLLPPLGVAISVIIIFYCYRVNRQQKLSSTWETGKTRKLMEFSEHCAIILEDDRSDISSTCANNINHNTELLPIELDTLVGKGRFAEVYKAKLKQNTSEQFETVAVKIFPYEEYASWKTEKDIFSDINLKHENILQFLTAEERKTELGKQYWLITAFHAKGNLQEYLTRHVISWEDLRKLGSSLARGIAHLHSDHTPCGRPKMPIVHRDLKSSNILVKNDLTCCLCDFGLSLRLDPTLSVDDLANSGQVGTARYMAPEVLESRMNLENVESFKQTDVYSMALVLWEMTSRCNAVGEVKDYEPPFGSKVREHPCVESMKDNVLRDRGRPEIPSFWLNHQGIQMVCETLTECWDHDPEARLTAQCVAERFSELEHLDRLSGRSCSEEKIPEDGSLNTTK

NC(=O)c1ccc(-c2nc(-c3ccc4c(c3)OCO4)c(-c3ccccn3)[nH]2)cc1 [Compound 1]
TGF-β2-mediated increase in perfusate fibronectin content [1]: completely antagonized | Inhibition of TGF-β2-mediated increase in PAI-1 content in supernatants [2]: dose-dependent inhibition | Inhibition of TGF-β2-mediated increase in fibronectin content in supernatants [2]: dose-dependent inhibition | TGF-β2-dependent PIP elevation ([3]; cultures treated with both TGF-β2 and compound): eliminated

c1ccc(-c2n[nH]cc2-c2ccnc3ccccc23)nc1 [Compound 2]
Inhibition of TGF-β2-mediated increase in PAI-1 content in supernatants [2]: dose-dependent inhibition | Inhibition of TGF-β2-mediated increase in fibronectin content in supernatants [2]: dose-dependent inhibition

c1ccc(-c2cc(-c3cn[nH]c3-c3ccccn3)ccn2)cc1 [GW-6604]
IC50 (ALK5): ~0.14 µM | IC50 (TGF-β Type II receptors): 10 µM | IC50 (p38 MAPK): 9.5 µM

B1: TGF-β2: transforming growth factor-beta isoform 2, a cytokine acting on ALK5 (Type 1 TGF-β receptor) (protein, UniProt P61812 303-414, looked up)
Transforming growth factor …: ALDAAYCFRNVQDNCCLRPLYIDFKRDLGWKWIHEPKGYNANFCAGACPYLWSSDTQHSRVLSLYNTINPEASASPCCVSQDLEPLTILYYIGKTPKIEQLSNMIVKSCKCS
IOP relative to control ([4]; after 72 hours): almost double | IOP compared to control ([4]; within 24 hours): elevated IOP | PIP levels compared to vehicle ([3]; TGF-β2-treated cultures, both study replicates): greatly elevated | Fibronectin Fold Increase (GTM-3; TGF-β2 5 ng/mL vs control): 5.4 | PAI-1 Fold Increase (GTM-3; TGF-β2 5 ng/mL vs control): 19.4 | Fibronectin (GTM-3; TGF-β2 5 ng/mL, mean±s.e.m.): 16.7 ± 1^ μg/well | PAI-1 (GTM-3; TGF-β2 5 ng/mL, mean±s.e.m.): 266 ± 8 ng/well | Fibronectin Fold Increase (GTM29-01; TGF-β2 5 ng/mL vs control): 9.4 | PAI-1 Fold Increase (GTM29-01; TGF-β2 5 ng/mL vs control): 3.9 | Fibronectin (GTM29-01; TGF-β2 5 ng/mL, mean±s.e.m.): 9.4 ± 2.6 μg/well | PAI-1 (GTM29-01; TGF-β2 5 ng/mL, mean±s.e.m.): 260.5 ± 13.6 ng/well | Fibronectin Fold Increase (GTM686-03; TGF-β2 5 ng/mL vs control): 126 | PAI-1 Fold Increase (GTM686-03; TGF-β2 5 ng/mL vs control): 2.5 | Fibronectin (GTM686-03; TGF-β2 5 ng/mL, mean±s.e.m.): 25.2 ± 9.6 μg/well | PAI-1 (GTM686-03; TGF-β2 5 ng/mL, mean±s.e.m.): 258.3 ± 28.1 ng/well | Fibronectin Fold Increase (GTM730-03; TGF-β2 5 ng/mL vs control): 32.8 | PAI-1 Fold Increase (GTM730-03; TGF-β2 5 ng/mL vs control): 2.2 | Fibronectin (GTM730-03; TGF-β2 5 ng/mL, mean±s.e.m.): 26.2 ± 1.6 μg/well | PAI-1 (GTM730-03; TGF-β2 5 ng/mL, mean±s.e.m.): 268.8 ± 3.9 ng/well | Fibronectin Fold Increase (NTM25-91; TGF-β2 5 ng/mL vs control): 6.2 | Fibronectin (NTM25-91; TGF-β2 5 ng/mL, mean±s.e.m.): 19.3 ± 1.5 μg/well | Fibronectin Fold Increase (NTM35; TGF-β2 5 ng/mL vs control): 4.1 | Fibronectin (NTM35; TGF-β2 5 ng/mL, mean±s.e.m.): 13 ± 2.7 μg/well | Fibronectin Fold Increase (NTM553-02; TGF-β2 5 ng/mL vs control): 6.7 | PAI-1 Fold Increase (NTM553-02; TGF-β2 5 ng/mL vs control): 2.5 | Fibronectin (NTM553-02; TGF-β2 5 ng/mL, mean±s.e.m.): 10.1 ± 1.1 μg/well | PAI-1 (NTM553-02; TGF-β2 5 ng/mL, mean±s.e.m.): 315.9 ± 9.5 ng/well | Fibronectin Fold Increase (NTM875-03; TGF-β2 5 ng/mL vs control): 19.2 | PAI-1 Fold Increase (NTM875-03; TGF-β2 5 ng/mL vs control): 2.6 | Fibronectin (NTM875-03; TGF-β2 5 ng/mL, mean±s.e.m.): 9.6 ± 3.8 μg/well | PAI-1 (NTM875-03; TGF-β2 5 ng/mL, mean±s.e.m.): 282.6 ± 11.6 ng/well | Fibronectin Fold Increase (NTM974-03; TGF-β2 5 ng/mL vs control): 2.3 | PAI-1 Fold Increase (NTM974-03; TGF-β2 5 ng/mL vs control): 2.8 | Fibronectin (NTM974-03; TGF-β2 5 ng/mL, mean±s.e.m.): 8.9 ± 1.5 μg/well | PAI-1 (NTM974-03; TGF-β2 5 ng/mL, mean±s.e.m.): 297.7 ± 23.1 ng/well | Fibronectin Fold Increase (SGTM1233-99; TGF-β2 5 ng/mL vs control): 3.1 | PAI-1 Fold Increase (SGTM1233-99; TGF-β2 5 ng/mL vs control): 2.9 | Fibronectin (SGTM1233-99; TGF-β2 5 ng/mL, mean±s.e.m.): 12.2 ± 2.1 μg/well | PAI-1 (SGTM1233-99; TGF-β2 5 ng/mL, mean±s.e.m.): 256.5 ± 35.4 ng/well | Fibronectin Fold Increase (SGTM2697; TGF-β2 5 ng/mL vs control): 2.4 | Fibronectin (SGTM2697; TGF-β2 5 ng/mL, mean±s.e.m.): 19.5 ± 2^ μg/well
